From patent publication US20110300138A1 (published 2011)
Where two headings read alike, the source gives them in different places. One block for each substance: values may come before it.

Assays:
[1] = molecular target: full length wild type human TSHR (human) (UniProt P16473); experiment: TSHR260-AP bridge ELISA, wild type TSHR on wells; IgG at 10 µg/mL in HBD
[2] = molecular target: full length human TSHR with mutation Arg255 Asp (human) (UniProt P16473); experiment: TSHR260-AP bridge ELISA, Arg255 Asp TSHR on wells; IgG at 10 µg/mL in HBD
[3] = molecular target: full length wild type human TSHR (human) (UniProt P16473); experiment: TSHR260-AP bridge ELISA, wild type TSHR on wells; IgG at 0.1 µg/mL in HBD
[4] = molecular target: full length human TSHR with mutation Arg255 Asp (human) (UniProt P16473); experiment: TSHR260-AP bridge ELISA, Arg255 Asp TSHR on wells; IgG at 0.005 µg/mL in HBD
[5] = molecular target: human TSH receptor (full length) coated on ELISA plate wells (human) (UniProt P16473); experiment: TSH-biotin binding inhibition ELISA, TSHR coated wells; 0.01 µg/mL in assay buffer + 100 µg/mL 5B3 IgG
[6] = molecular target: human TSHR (thyroid stimulating hormone receptor) expressed in transfected CHO cells (human) (UniProt P16473); experiment: cell-based or functional assay
[7] = molecular target: TSHR with Arg255 mutated to Asp expressed in CHO cells (human) (UniProt P16473); experiment: cell-based or functional assay
[8] = molecular target: wild type TSHR expressed in CHO cells (human) (UniProt P16473); experiment: cell-based or functional assay
[9] = molecular target: TSHR with His105 mutated to Ala (expressed in CHO cells) (human) (UniProt P16473); experiment: cell-based or functional assay
[10] = molecular target: wild type TSHR expressed in CHO cells (human) (UniProt P16473); experiment: cell-based or functional assay; remark: listed apart in the source
[11] = molecular target: TSHR with Tyr206 mutated to Ala (human) (UniProt P16473); experiment: cell-based or functional assay
wild type TSHR (human) = wild type TSHR (human) (UniProt P16473); experiment: cell-based or functional assay
[12] = molecular target: TSHR with Arg274 mutated to Ala, expressed in CHO cells (human) (UniProt P16473); experiment: cell-based or functional assay
[13] = molecular target: wild type TSHR expressed in CHO cells (human) (UniProt P16473); experiment: cell-based or functional assay; remark: listed apart in the source
[14] = molecular target: TSH receptor (TSHR), full length human, coated on tubes (human) (UniProt P16473); experiment: inhibition of 125I-TSH binding to TSHR coated tubes; 0.1 µg/mL, diluted in HBD serum pool
TSHR260-AP (human) = experiment: TSHR260-AP bridge ELISA (full length TSHR on wells, TSHR260-AP in solution); IgG 100 µg/mL diluted in assay buffer
[15] = molecular target: TSH receptor (TSHR), full length human, coated on tubes (human) (UniProt P16473); experiment: inhibition of 125I-K1-18 IgG binding to TSHR coated tubes; competitor 125I-K1-18 IgG; negative control sample at 0.01 µg/mL in HBD serum

Sequence of M22 IgG (antibody) (VH): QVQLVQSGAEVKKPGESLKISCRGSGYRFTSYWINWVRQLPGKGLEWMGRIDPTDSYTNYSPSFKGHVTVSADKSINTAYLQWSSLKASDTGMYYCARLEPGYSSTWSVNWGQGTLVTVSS
Sequence of M22 IgG (antibody) (V domain): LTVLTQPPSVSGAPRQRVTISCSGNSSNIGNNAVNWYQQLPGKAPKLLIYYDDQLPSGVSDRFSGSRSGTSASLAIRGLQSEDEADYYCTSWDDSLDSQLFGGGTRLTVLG

Mean absorbance at 405 nm (absorbance at 405 nm) [1]: 1.36 | Mean absorbance at 405 nm (absorbance at 405 nm) [2]: 0.551 | Mean absorbance at 405 nm (absorbance at 405 nm) [3]: 0.599 | Mean absorbance at 405 nm (absorbance at 405 nm) [4]: -0.007 | % inhibition of TSH-biotin binding [5]: 12.9%
Substance: M22 IgG (antibody)

% Inhibition; 10 ng/mL K1-18 IgG + 10 µg/mL 5B3 IgG [6]: 4% | % Inhibition; 10 ng/mL K1-18 IgG + 100 µg/mL 5B3 IgG [6]: -13% | Cyclic AMP concentration; 10 ng/mL K1-18 IgG + 10 µg/mL 5B3 IgG [6]: 35.4 pmol/mL | Cyclic AMP concentration; 10 ng/mL K1-18 IgG + 100 µg/mL 5B3 IgG [6]: 41.9 pmol/mL | Cyclic AMP concentration; 100 µg/mL 5B3 IgG [6]: 1.3 pmol/mL | % inhibition of TSH stimulation; 5B3 10 µg/mL [7]: 0% | % inhibition of TSH stimulation; 5B3 100 µg/mL [7]: 0% | Cyclic AMP produced; 5B3 10 µg/mL + TSH 3 ng/mL [7]: 59.4 pmol/mL | Cyclic AMP produced; 5B3 100 µg/mL + TSH 3 ng/mL [7]: 62.2 pmol/mL | Mutated/wild type (%) of cyclic AMP produced; 5B3 10 µg/mL + TSH 3 ng/mL [7]: 86% | Mutated/wild type (%) of cyclic AMP produced; 5B3 100 µg/mL + TSH 3 ng/mL [7]: 75% | % inhibition of TSH stimulation; 5B3 10 µg/mL [8]: 0% | % inhibition of TSH stimulation; 5B3 100 µg/mL [8]: 0% | Cyclic AMP produced; 5B3 10 µg/mL + TSH 3 ng/mL [8]: 69.2 pmol/mL | Cyclic AMP produced; 5B3 100 µg/mL + TSH 3 ng/mL [8]: 83.4 pmol/mL | % inhibition of TSH stimulation; 5B3 10 µg/mL [9]: 0% | % inhibition of TSH stimulation; 5B3 100 µg/mL [9]: 0% | Cyclic AMP produced; 5B3 10 µg/mL + TSH 3 ng/mL [9]: 75.2 pmol/mL | Cyclic AMP produced; 5B3 100 µg/mL + TSH 3 ng/mL [9]: 66.7 pmol/mL | Mutated/wild type (%) of cyclic AMP produced; 5B3 10 µg/mL + TSH 3 ng/mL [9]: 82% | Mutated/wild type (%) of cyclic AMP produced; 5B3 100 µg/mL + TSH 3 ng/mL [9]: 50% | % inhibition of TSH stimulation; 5B3 10 µg/mL [10]: 2% | Cyclic AMP produced; 5B3 10 µg/mL + TSH 3 ng/mL [10]: 91.6 pmol/mL | Cyclic AMP produced; 5B3 100 µg/mL + TSH 3 ng/mL [10]: 134 pmol/mL | % inhibition of TSH stimulation, 5B3 10 µg/mL, mutated TSHR [11]: 10% | % inhibition of TSH stimulation, 5B3 100 µg/mL, mutated TSHR [11]: 9% | Cyclic AMP produced (pmol/mL), 5B3 10 µg/mL + TSH 3 ng/mL, mutated TSHR [11]: 74.6 pmol/mL | Cyclic AMP produced (pmol/mL), 5B3 100 µg/mL + TSH 3 ng/mL, mutated TSHR [11]: 75.2 pmol/mL | Mutated/wild type (%) of cyclic AMP produced; 5B3 10 µg/mL + TSH 3 ng/mL [11]: 79% | Mutated/wild type (%) of cyclic AMP produced; 5B3 100 µg/mL + TSH 3 ng/mL [11]: 74% | % inhibition of TSH stimulation, 5B3 100 µg/mL, wild type TSHR (wild type TSHR (human)): 0% | Cyclic AMP produced (pmol/mL), 5B3 10 µg/mL + TSH 3 ng/mL, wild type TSHR (wild type TSHR (human)): 94.5 pmol/mL | Cyclic AMP produced (pmol/mL), 5B3 100 µg/mL + TSH 3 ng/mL, wild type TSHR (wild type TSHR (human)): 101 pmol/mL | % inhibition of TSH stimulation; 5B3 10 µg/mL [12]: 0% | % inhibition of TSH stimulation; 5B3 100 µg/mL [12]: 4% | Cyclic AMP produced; 5B3 10 µg/mL + TSH 3 ng/mL [12]: 106 pmol/mL | Cyclic AMP produced; 5B3 10 µg/mL + TSH 3 ng/mL (second row printed with 10 µg/mL) [12]: 95.3 pmol/mL | Mutated/wild type (%) of cyclic AMP produced; 5B3 10 µg/mL + TSH 3 ng/mL [12]: 92% | Mutated/wild type (%) of cyclic AMP produced; 5B3 10 µg/mL + TSH 3 ng/mL (second row printed with 10 µg/mL) [12]: 79% | % inhibition of TSH stimulation; 5B3 10 µg/mL [13]: 0% | % inhibition of TSH stimulation; 5B3 100 µg/mL [13]: 0% | Cyclic AMP produced; 5B3 10 µg/mL + TSH 3 ng/mL [13]: 116 pmol/mL | Cyclic AMP produced; 5B3 10 µg/mL + TSH 3 ng/mL (second row printed with 10 µg/mL) [13]: 121 pmol/mL | Inhibition of binding (%) [14]: 4.4% | Mean absorbance at 405 nm (absorbance at 405 nm) (TSHR260-AP (human)): -0.011 | Inhibition of binding (%) [15]: -8.1%
Substance: 5B3 IgG (antibody)
